Reference: PMC5256923, “RNA and DNA Targeting by a Reconstituted Thermus thermophilus Type III-A CRISPR-Cas System” (PLoS ONE, 2017)
Where “and” joins values, the source holds several entries; their conditions need not be identical. Identical values can stand only once.

T1: T. thermophilus Csm5, His10 tag cleaved off with HRV 3C protease (T. thermophilus, UniProt Q53W18 1-397)
T1 construct: Csm5 of Thermus thermophilus (locus TTHB151), codon-optimized gene; Same construct as m1 after 3C cleavage; also called TTHB151; source: E. coli BL21(λDE3), co-expressed with the other Csm subunits, Cas6A and crRNA 4.5; co-purified in the TthCsm complex (Ni-NTA, 3C cleavage, Ni-NTA, Superose 6)
T1 sequence (looked up): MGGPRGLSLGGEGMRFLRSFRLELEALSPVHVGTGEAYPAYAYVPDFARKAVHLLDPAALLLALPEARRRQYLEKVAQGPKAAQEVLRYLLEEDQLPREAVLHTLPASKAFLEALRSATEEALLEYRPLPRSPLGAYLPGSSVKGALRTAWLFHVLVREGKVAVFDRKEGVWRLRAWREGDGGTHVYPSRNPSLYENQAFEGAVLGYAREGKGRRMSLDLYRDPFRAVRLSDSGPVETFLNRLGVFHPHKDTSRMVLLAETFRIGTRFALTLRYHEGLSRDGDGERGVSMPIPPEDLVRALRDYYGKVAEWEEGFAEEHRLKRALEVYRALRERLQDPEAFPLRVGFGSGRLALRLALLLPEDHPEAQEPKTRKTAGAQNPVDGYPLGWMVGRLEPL

B1: T. thermophilus Cas10/Csm1 (natural protein, UniProt Q53W19 1-805, looked up)
chain: MLGDGLSVALAGLLHDVGKLYSRARWGERDDQVPDRTHTAYTAHFVREHAGLFRGAGLDPDWLARTASRHHEGWRDRPQYRPETPEEWCVALADTYASKEREEGEGGGSPPEVPLSPPFRRLLLGGEEGREGGYSPVGAGGRVGLEAGGLYPEERPNVSKDVYKRLLERLEGRLEEMARFSLGKEALVLNLALALQETLSLVPSDTQSEPDVSLYDHLRLTAAIAHALWLFHGGSPSAQNLRQDGEKFLLVVGDMGGIQGHIYRIAGAEAGVGGIAKRLRARSLEVSLAAEAMALGLLWRLGLTSLNRILGAGGKFYLLLPNTEEARAALEGTREAWGRWALKRGGSLVPHLAWVAFRGQDFRDFAALLKRLHEALAREKLRPFAFLASTGGVLGAPLRPCAACGLEPARRDEPGSLCPDCEREAALGARLPRSDRVGFFLEEAPRPYLDFPGLKVGLGGPLEGAFHLFRARLDFAPWPDPSEAKPLLGHLPRVEHALKAKGWSLEAYRAWAEEEGLLEDEEPHPEKVLTFAELAALSEGAPYLGALMLDADRMGEAFATGFRREGRDLATPSRLAALSRTLEVFFTTEVLTLLEEPRRYRERLGWDDLEAQRKEARYPLLYSVYSGGDDLFLLGPWDALLDFALDLERLYRLFTRHPRLTLSGGFLLVPPSLPVPELARLLGEAEKRAKAEGRERLFLFGQAVPWETLRGLRAWAEGLRQDLRAERVSRAQVYRWLLLWRRFSPLEDPGERMRYKPLLAYALRRVRERDEEAWKRYLKLLDHQDPAWAYLPVWVQWALYRERRV
notes: Cas10/Csm1 of Thermus thermophilus (locus TTHB147), codon-optimized gene; also called TTHB147; source: E. coli BL21(λDE3), co-expressed with the other Csm subunits, Cas6A and crRNA 4.5; in lysate, and co-purified in the TthCsm complex (Ni-NTA, Superose 6)

What was measured:
[1] = molecular target: T. thermophilus Csm5, His10 tag cleaved off with HRV 3C protease (T. thermophilus) (UniProt Q53W18); test: native MS; native nanoESI-MS, positive ion mode, about 5 uM of the co-expressed and co-purified TthCsm complex (with crRNA) exchanged into 1 M ammonium acetate, 5% glycerol
[2] = molecular target: T1, T. thermophilus Csm5, His10 tag cleaved …; test: as above; details: both partners purified

Molecule	stoichiometry N [1]	stoichiometry N [2]
T. thermophilus Csm4 (from UniProt Q53W19 1-805) (natural protein)	1	–
T. thermophilus Csm3 (natural protein)	6 and 4	–
T. thermophilus Csm2 (natural protein)	3 and 4	–
B1	–	1
